Assay results reported in PMC4004597 (Molecular Biology of the Cell, 2014).

T1: R. norvegicus Nup62 (aa 322–525), entire predicted α-helical part (R. norvegicus, UniProt P17955 322-525)
T1 sequence: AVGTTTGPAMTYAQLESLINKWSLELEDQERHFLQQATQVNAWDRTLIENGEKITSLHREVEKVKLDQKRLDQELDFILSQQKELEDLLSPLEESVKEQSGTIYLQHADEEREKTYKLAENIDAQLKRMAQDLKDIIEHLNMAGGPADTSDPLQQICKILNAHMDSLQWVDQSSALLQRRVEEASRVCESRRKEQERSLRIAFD

T2: R. norvegicus Nup54 of the published Nup58-Nup54 crystal construct (aa 456–494) (R. norvegicus, UniProt P70582 456-494)
T2 chain: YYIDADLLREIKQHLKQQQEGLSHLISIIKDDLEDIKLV

B1: R. norvegicus Nup58 (aa 327–415), N-terminally truncated (domain or fragment)
chain: APADYFRVLVQQFEVQLQQYRQQIEELENHLATQANNSHITPQDLSMAMQKIYQTFVALAAQLQSIHENVKVLKEQYLSYRKMFLGDAG
B2: long rnNup58-Nup54-Nup62 complex (complex)
chain 1: not shown
chain 2: MTKQHQTRLDIISEDISELQKNQTTTMAKIAQYKRKLMDLSHRTLQVLIKQEIQRKSGYAIQAEEEQLRVQLDTIQGELNAPTQFKGRLNELMSQIRMQNHFGAVKSEEKYYIDADLLREIKQHLKQQQEGLSHLISIIKDDLEDIKLV
chain 3: T1 sequence
B3: R. norvegicus Nup54 (aa 346–494), entire predicted α-helical part (domain or fragment)
chain: B2 chain 2
B4: short rnNup58-Nup54-Nup62 complex (complex)
chain 1: B1 chain
chain 2: B2 chain 2
chain 3: T1 sequence
B5: R. norvegicus Nup58 of the published Nup58-Nup54 crystal construct (aa 327–412) (domain or fragment)
chain: APADYFRVLVQQFEVQLQQYRQQIEELENHLATQANNSHITPQDLSMAMQKIYQTFVALAAQLQSIHENVKVLKEQYLSYRKMFLG
B6: R. norvegicus Nup58 (aa 239–415), entire predicted α-helical part (domain or fragment)
chain: not shown

How the values were obtained:
[1] = target: B3; assay: SEC
AUC = target: the molecule itself; assay: AUC
[2] = target: T1, R. norvegicus Nup62 (aa 322–525), …; assay: SEC
[3] = target: T2, R. norvegicus Nup54 of the published …; assay: AUC

Binder	stoichiometry N [1]	Kd (AUC)	further results
B1	1		
B2		52 µM	
B3			stoichiometry N [2]: 1
B4		49.3 µM	
B5			stoichiometry N [3]: 2 Nup58:Nup54
B6	1		
